# Data taken from PMC2892505, “SUMO-1 possesses DNA binding activity”.
# B1: 27-mer (dsDNA)
# DNA 1: CGGGGCCGGGGCGGGCCGCGCAAGCAG
# DNA 2: CTGCTTGCGCGGCCCGCCCCGGCCCCG
# Key:
# GST-SUMO-1 [1] = assay: cross-linking; about 100 ng protein without or with increasing dsDNA, 10 min 37°C in NMR buffer (100 mM Na2PO4 pH 6.6, 1 mM EDTA, 1 mM DTT), UV 312 nm 10 min, SDS-PAGE and western blot (anti-GST or anti-SUMO-1); also with DNaseI treatment
# SUMO-1 = SUMO-1 (human, UniProt P63165 1-101); assay: UV crosslinking, Western blot; NMR: 100 mM NaPi pH 6.6, 1 mM DTT, 1 mM EDTA, temperature not stated; UV crosslink: 100 ng GST-SUMO-1 with 500 ng dsDNA, buffer not stated; settings: protein: recombinant; tags: untagged (GST removed by thrombin); 15N-labeled for NMR; blunt
# Sequence of SUMO-1 (P63165 whole entry): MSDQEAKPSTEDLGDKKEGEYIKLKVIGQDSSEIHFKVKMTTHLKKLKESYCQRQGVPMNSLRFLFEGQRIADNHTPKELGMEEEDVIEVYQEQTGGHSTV
# GST-SUMO-1 [2] = molecular target: GST-SUMO-1 (human, UniProt P63165 1-101); assay: UV crosslinking, Western blot; complex migrates faster than with 65-mer; NMR: 100 mM NaPi pH 6.6, 1 mM DTT, 1 mM EDTA, temperature not stated; UV crosslink: 100 ng GST-SUMO-1 with 500 ng dsDNA, buffer not stated; settings: protein: recombinant; chain copies: 2; blunt
# Sequence of GST-SUMO-1 (human, UniProt P63165 1-101) (P63165 whole entry): as above
molecule,measurement,setting,value
GST-SUMO-1,stoichiometry N,GST-SUMO-1 [1],2
B1,binding result,SUMO-1,binds
same,binding result,GST-SUMO-1 [2],binds
